According to US20200277374A1 (Alector, published 2020):
One block for each binder: values may come before it.

Key:
[1] = target: T1, T107A (human, UniProt Q9Y286); assay: flow cytometry on HEK-293T cells expressing the mutant, mock signal subtracted
T1 construct: clone of the siglec-7 mutation library; also called Siglec-7 T107A
Procedure: (§1) Shotgun mutagenesis epitope mapping of anti-siglec-7 antibodies was performed using an alanine-scanning library for the siglec-7 protein. […] Each of residues 19 to 353 was mutated, representing the siglec-7 extracellular domain, most to alanine, while alanine codons were mutated to serine. In total, 335 siglec-7 mutant expression constructs were generated, sequences confirmed, and arrayed into a 384-well plate, one mutant per well.
(§2) Cells were then incubated with MAbs diluted in 10% o normal goat serum (NGS) (Sigma-Aldrich, St. Louis, Mo.). Prior to library screening, primary MAb concentrations were determined using an independent immunofluorescence titration curve against cells expressing wild-type siglec-7 to ensure that signals were within the linear range of detection. MAbs were detected using 3.75 μg/ml AlexaFluor488-conjugated secondary antibody (Jackson immunoResearch Laboratories, Westgrove, Pa.) in 10% NGS. […] Mean cellular fluorescence was detected using the Intellicyt high throughput flow cytometer (HTFC, Intellicyt, Albuquerque, N. Mex.). MAb reactivities against each mutant clone were calculated relative to wild-type siglec-7 protein reactivity by subtracting the signal from mock-transfected controls, and normalizing to the signal from wild-type siglec-7-transfected controls.

[2] = target: F48A (human) (UniProt Q9Y286); assay: flow cytometry on HEK-293T cells expressing the mutant; mean % of wild-type signal (range of duplicates)
[3] = target: M30A (human) (UniProt Q9Y286); assay: as above
[4] = target: T103A (human) (UniProt Q9Y286); assay: as above
[5] = target: V44A (human) (UniProt Q9Y286); assay: as above
[6] = target: Y50A (human) (UniProt Q9Y286); assay: as above
[7] = target: T2, I72A (human, UniProt Q9Y286); assay: as above
T2 construct: clone of the siglec-7 mutation library; also called Siglec-7 I72A
Procedure: as §1
(§3) Cells were then incubated with MAbs diluted in 10% o normal goat serum (NGS) (Sigma-Aldrich, St. Louis, Mo.). Prior to library screening, primary MAb concentrations were determined using an independent immunofluorescence titration curve against cells expressing wild-type siglec-7 to ensure that signals were within the linear range of detection. MAbs were detected using 3.75 μg/ml AlexaFluor488-conjugated secondary antibody (Jackson immunoResearch Laboratories, Westgrove, Pa.) in 10% NGS. Cells were washed twice with PBS−/− and resuspended in Cellstripper (Cellgro, Manassas, Va.) with 0.1% BSA (Sigma-Aldrich, St. Louis, Mo.). Mean cellular fluorescence was detected using the Intellicyt high throughput flow cytometer (HTFC, Intellicyt, Albuquerque, N. Mex.). MAb reactivities against each mutant clone were calculated relative to wild-type siglec-7 protein reactivity by subtracting the signal from mock-transfected controls, and normalizing to the signal from wild-type siglec-7-transfected controls.

[8] = target: T3, W74A (human, UniProt Q9Y286); assay: as above
T3 construct: clone of the siglec-7 mutation library; also called Siglec-7 W74A
Procedure: as §1, §3

[9] = target: T4, N81A (human, UniProt Q9Y286); assay: as above
T4 construct: clone of the siglec-7 mutation library; also called Siglec-7 N81A
Procedure: as §1, §3

[10] = target: T1, T107A; assay: as above
Procedure: as §1, §3

[11] = target: T5, R124A (human, UniProt Q9Y286); assay: as above
T5 construct: clone of the siglec-7 mutation library; also called Siglec-7 R124A
Procedure: as §1, §3

[12] = target: T6, Q31A (human, UniProt Q9Y286); assay: as above
T6 construct: clone of the siglec-7 mutation library; also called Siglec-7 Q31A
Procedure: as §1, §3

[13] = target: T7, R45A (human, UniProt Q9Y286); assay: as above
T7 construct: clone of the siglec-7 mutation library; also called Siglec-7 R45A
Procedure: as §1, §3

[14] = target: T8, S47A (human, UniProt Q9Y286); assay: as above
T8 construct: clone of the siglec-7 mutation library; also called Siglec-7 S47A
Procedure: as §1, §3

[15] = target: T5, R124A; assay: flow cytometry on HEK-293T cells expressing the mutant, mock signal subtracted
Procedure: as §1, §2

[16] = target: T9, Y50A (human, UniProt Q9Y286); assay: flow cytometry on HEK-293T cells expressing the mutant; mean % of wild-type signal (range of duplicates)
T9 construct: clone of the siglec-7 mutation library; also called Siglec-7 Y50A
Procedure: as §1, §3

[17] = target: T10, K104A (human, UniProt Q9Y286); assay: as above
T10 construct: clone of the siglec-7 mutation library; also called Siglec-7 K104A
Procedure: as §1, §3

[18] = target: T11, M185A (human, UniProt Q9Y286); assay: as above
T11 construct: clone of the siglec-7 mutation library; also called Siglec-7 M185A
Procedure: as §1, §3

[19] = target: T12, M30A (human, UniProt Q9Y286); assay: as above
T12 construct: clone of the siglec-7 mutation library; also called Siglec-7 M30A
Procedure: as §1, §3

[20] = target: T13, V44A (human, UniProt Q9Y286); assay: as above
T13 construct: clone of the siglec-7 mutation library; also called Siglec-7 V44A
Procedure: as §1, §3

[21] = target: T14, F48A (human, UniProt Q9Y286); assay: as above
T14 construct: clone of the siglec-7 mutation library; also called Siglec-7 F48A
Procedure: as §1, §3

[22] = target: T15, human Siglec-7 expressed on human cells (primary monocytes, dendritic cells, macrophages, NK cells, … (human, UniProt Q9Y286 19-467)); assay: cell-based or functional assay
[23] = target: T15, human Siglec-7 expressed on human cells …; assay: cell-based or functional assay; remark: listed apart in the source
[24] = target: T15, human Siglec-7 expressed on human cells …; assay: FACS, human primary monocytes, 10 ug/ml mAb
[25] = target: T15, human Siglec-7 expressed on human cells …; assay: FACS, human primary macrophages, 10 ug/ml mAb
[26] = target: T15, human Siglec-7 expressed on human cells …; assay: FACS, human primary dendritic cells, 10 ug/ml mAb
[27] = target: T16, Histidine-tagged human Siglec-7 (NovoProtein) (human, UniProt Q9Y286 19-357, limits assumed); assay: SPR (BiaCore T200, 25 C), antibody captured on anti-mouse IgG, Siglec-7-His 5 nM, single-concentration kinetics
T16 construct: Bought protein; also called purified Siglec-7-his tagged protein; not shown: histidine tag
Procedure: (§4) SPR data was collected at a rate of 10 Hz at 25′ C on a BiaCore T200 instrument. Data analysis was performed using BiaCore T200 Evaluation Software, version 2.0. HBS-EP+ (100 mM HEPES, 1.5 M NaCl, 30 mM EDTA, 0.5% v/v Surfactant P20, pH 7.4) was used as running buffer and for preparing reagents.
(§5) Mouse-derived antibodies (25 nM) against Siglec-7 were captured (60 s contact time, 30 μL/min flow rate, 0 s stabilization time) on a CM5 sensor chip (GE Healthcare) immobilized with anti-mouse IgG. Histidine-tagged human Siglec-7 (NovoProtein) was then flowed over the captured anti-Siglec-7 surface (120 s contact time, 30 μL/min flow rate, 300 s dissociation time). Concentration of antigen ranged from 5 nM to 100 nM, depending on information obtained from an initial screen. Duplicate single-concentration trials were performed and bracketed by a blank (0 nM antigen) sample. The chip surface was regenerated in between cycles using 10 mM glycine-HCl, pH1.7 (60 s contact time, 30 μL/min flow rate, 60 s stabilization time). The resulting SPR signal was obtained as the difference in response from measurements performed on a blank flow cell.
(§6) Affinity constants (KD) were calculated from the ratio kd/kₐ. For one antibody (clone 1E8), we validated the single-concentration analysis with a multiple-concentration approach (five concentrations of antigen used, plus one blank).

[28] = target: T17, Siglec-7-Fc (plate immobilized) (human, UniProt Q9Y286 19-357, limits assumed); assay: RBC solid adhesion assay, plate-coated Siglec-7-Fc, antibody 0.5 or 1.0 ug/ml; % of RBC binding without antibody
T17 construct: also called Siglec-7-Fc protein; immobilized Siglec-7; not shown: Fc part
Procedure, shortened: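 Plates coated overnight at RT with 5 μg/ml Siglec-7-Fc and blocked in PBS with BSA and 1 mM CaCl₂. Antibody (0.5 or 1.0 μg/ml) bound 1 h at RT, then RBCs (3.0×10⁶ cells/ml) added for 1 h at RT. Bound RBCs lysed and detected by peroxidase at 450 nm, expressed as % of binding without antibody.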

[29] = target: T16, Histidine-tagged human Siglec-7 …; assay: SPR (Biacore T200), antibody captured on anti-mouse IgG, 5 nM Siglec-7-his flowed over, single-concentration 1:1 fit, 25 C
Procedure: as §4, §5, §6

T1 sequence (Q9Y286 19-467 T107A limits assumed): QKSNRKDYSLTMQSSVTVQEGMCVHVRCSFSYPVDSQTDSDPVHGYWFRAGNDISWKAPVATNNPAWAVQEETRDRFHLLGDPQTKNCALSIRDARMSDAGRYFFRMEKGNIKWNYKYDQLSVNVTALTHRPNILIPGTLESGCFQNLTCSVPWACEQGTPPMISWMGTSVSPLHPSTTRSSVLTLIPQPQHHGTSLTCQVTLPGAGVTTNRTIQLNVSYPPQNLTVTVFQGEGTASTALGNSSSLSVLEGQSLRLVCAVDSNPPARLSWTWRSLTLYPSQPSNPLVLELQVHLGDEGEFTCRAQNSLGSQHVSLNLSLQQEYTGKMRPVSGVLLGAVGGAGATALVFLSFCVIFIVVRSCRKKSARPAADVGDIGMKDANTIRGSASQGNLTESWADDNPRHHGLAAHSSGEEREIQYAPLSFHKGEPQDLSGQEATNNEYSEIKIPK
T5 sequence (Q9Y286 19-467 R124A limits assumed): as the sequence (Q9Y286 19-467 T107A limits assumed) above, with A89T, R106A counted along it
T15 sequence (Q9Y286 19-467): as the sequence (Q9Y286 19-467 T107A limits assumed) above, with A89T counted along it
T2 sequence (Q9Y286 19-467 I72A limits assumed): as the sequence (Q9Y286 19-467 T107A limits assumed) above, with I54A, A89T counted along it
T8 sequence (Q9Y286 19-467 S47A limits assumed): as the sequence (Q9Y286 19-467 T107A limits assumed) above, with S29A, A89T counted along it
T6 sequence (Q9Y286 19-467 Q31A limits assumed): as the sequence (Q9Y286 19-467 T107A limits assumed) above, with Q13A, A89T counted along it
T4 sequence (Q9Y286 19-467 N81A limits assumed): as the sequence (Q9Y286 19-467 T107A limits assumed) above, with N63A, A89T counted along it
T16 sequence (Q9Y286 19-357 limits assumed): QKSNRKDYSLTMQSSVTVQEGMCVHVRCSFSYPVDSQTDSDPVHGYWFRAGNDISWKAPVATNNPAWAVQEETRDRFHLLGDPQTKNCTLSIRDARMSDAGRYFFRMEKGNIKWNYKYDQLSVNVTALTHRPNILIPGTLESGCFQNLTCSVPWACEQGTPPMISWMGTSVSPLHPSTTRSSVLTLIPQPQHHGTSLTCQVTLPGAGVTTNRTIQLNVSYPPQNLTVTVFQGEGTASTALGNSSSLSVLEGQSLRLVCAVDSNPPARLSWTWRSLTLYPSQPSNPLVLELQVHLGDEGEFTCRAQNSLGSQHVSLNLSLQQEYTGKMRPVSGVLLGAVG
T7 sequence (Q9Y286 19-467 R45A limits assumed): as the sequence (Q9Y286 19-467 T107A limits assumed) above, with R27A, A89T counted along it
T3 sequence (Q9Y286 19-467 W74A limits assumed): as the sequence (Q9Y286 19-467 T107A limits assumed) above, with W56A, A89T counted along it
Sequence of T103A (human) (Q9Y286 19-467 T103A limits assumed): as the sequence (Q9Y286 19-467 T107A limits assumed) above, with T85A, A89T counted along it
T17 sequence (Q9Y286 19-357 limits assumed): as the sequence (Q9Y286 19-357 limits assumed) above
T11 sequence (Q9Y286 19-467 M185A limits assumed): as the sequence (Q9Y286 19-467 T107A limits assumed) above, with A89T, M167A counted along it
Sequence of F48A (human) (Q9Y286 19-467 F48A limits assumed): as the sequence (Q9Y286 19-467 T107A limits assumed) above, with F30A, A89T counted along it
T14 sequence (Q9Y286 19-467 F48A limits assumed): as the sequence (Q9Y286 19-467 T107A limits assumed) above, with F30A, A89T counted along it
Sequence of V44A (human) (Q9Y286 19-467 V44A limits assumed): as the sequence (Q9Y286 19-467 T107A limits assumed) above, with V26A, A89T counted along it
T13 sequence (Q9Y286 19-467 V44A limits assumed): as the sequence (Q9Y286 19-467 T107A limits assumed) above, with V26A, A89T counted along it
T10 sequence (Q9Y286 19-467 K104A limits assumed): as the sequence (Q9Y286 19-467 T107A limits assumed) above, with K86A, A89T counted along it
T12 sequence (Q9Y286 19-467 M30A limits assumed): as the sequence (Q9Y286 19-467 T107A limits assumed) above, with M12A, A89T counted along it
Sequence of M30A (human) (Q9Y286 19-467 M30A limits assumed): as the sequence (Q9Y286 19-467 T107A limits assumed) above, with M12A, A89T counted along it
T9 sequence (Q9Y286 19-467 Y50A limits assumed): as the sequence (Q9Y286 19-467 T107A limits assumed) above, with Y32A, A89T counted along it
Sequence of Y50A (human) (Q9Y286 19-467 Y50A limits assumed): as the sequence (Q9Y286 19-467 T107A limits assumed) above, with Y32A, A89T counted along it

binding result [1]: no binding
Binding Reactivity (% WT) [2]: 13.9 % WT
Binding Reactivity (% WT) [3]: 20.1 % WT
Binding Reactivity (% WT) [4]: 6.3 % WT
Binding Reactivity (% WT) [5]: 13.3 % WT
Binding Reactivity (% WT) [6]: 18.2 % WT
Binding Reactivity (% WT) [7]: 92.8 % WT
Binding Reactivity (% WT) [8]: 79.8 % WT
Binding Reactivity (% WT) [9]: 138 % WT
Binding Reactivity (% WT) [10]: 0.4 % WT
Binding Reactivity (% WT) [11]: 81.1 % WT
Binding Reactivity (% WT) [12]: 18.2 % WT
Binding Reactivity (% WT) [13]: 1.6 % WT
Binding Reactivity (% WT) [14]: 1.5 % WT
B1: 10B5 Fab (Fab, V domains shown)
VH: QVHLQQSGPELVKPGASVKISCKASGYAFTNCWMNWVRQRPGKGLDWIGRIFPGNGHTNYSGKFKDKATLTEDKSSSTAYMQLSSLTSEDSAVYFCARDYSDYYFDYWGQGTTLTVSS
VL: DVQMTQTTSSLSASLGDRVTISCRASQDINTYLNWYQQKPDGTVKLLIYYTSRLHSGVPSRFSGSGSGTDYSLTISNLEQEDIATYFCQQGNTLPWTFGGGTKLEIK

binding result [15]: no binding
Binding Reactivity (% WT) [16]: 139 % WT
Binding Reactivity (% WT) [7]: 26.5 % WT
Binding Reactivity (% WT) [8]: 25.7 % WT
Binding Reactivity (% WT) [9]: 22 % WT
Binding Reactivity (% WT) [17]: 115 % WT
Binding Reactivity (% WT) [10]: 124 % WT
Binding Reactivity (% WT) [11]: 1 % WT
Binding Reactivity (% WT) [18]: 91.6 % WT
Binding Reactivity (% WT) [19]: 123 % WT
Binding Reactivity (% WT) [12]: 112 % WT
Binding Reactivity (% WT) [20]: 115 % WT
Binding Reactivity (% WT) [13]: 129 % WT
Binding Reactivity (% WT) [14]: 103 % WT
Binding Reactivity (% WT) [21]: 146 % WT
B2: 4E3 Fab (Fab, V domains shown)
VH: EVQLVESGGALVKPGGSLKISCAVSGFIFSNYDMSWVRQNPEKRLEWVATISSGGGYTYYPDSVKGRFTISRDNAKNALYLQMSSLRSEDTALYYCTRHGYGNYDWYFDVWGAGATVTVSS
VL: QIVLTQSPAILSASPGEKVTMTCSANSSFTYMYWYQQKPGSSPRLLIFDTSNLASGVPIRFSGSGSGTSYSLTISRMEAEDTATYYCQQWSSSPLTFGAGTKLELK

Percent Siglec-7 Surface Expression, DCs [22]: 23%
Percent Siglec-7 Surface Expression, Monocytes [22]: 36.7%
Percent Siglec-7 Surface Expression, U937 cells [22]: 114%
Percent Siglec-7 Surface Expression, Macrophages [23]: 9.1%
Percent Siglec-7 Surface Expression, Microglia [23]: 41.3%
Percent Siglec-7 Surface Expression, NK cells [23]: 144%
% Positive [24]: 99.3%
MFI [24]: 428
% Positive [25]: 99.5%
MFI [25]: 5450
% Positive [26]: 99.7%
MFI [26]: 2940
Kd [27]: 0.017 nM
Percent RBC Binding to Siglec-7 [28]: 16.4%
Kd [29]: 0.017 nM
B3: anti-Siglec-7 antibody 1E8 (antibody, V domains shown)
VH: QVQLQQSGAELVRPGASVKLSCSASGFNIKGSLLHWIKQRPLQGLEWIGWIDPEDGETRFDPKFQDKAFLTADTSSTTAYLQLSSLTSEDTAIYYCARTEYSNPAWFAYWGQGTLVTVSA
VL: DIQMTQFPATLSVTPGDRVSLSCRASQSISDYLHWYQHKSHESPRLLIKYASQSISGIPSRFSGSGSGWDFTLSINSVEPEDVGIYYCQKGLNFPLTFGGGTKLEMK
